One substance from PMC9468479 can be followed below.

Assay [1] has as its target Wuhan-Hu-1 SARS-CoV-2 receptor binding domain (2019-nCoV spike RBD) (SARS-CoV-2 (Wuhan-Hu-1)) (UniProt P0DTC2). Description: SPR.
Assay [2] deals with SARS-CoV-2 wild-type Wuhan-Hu-1 spike protein (2019-nCoV spike protein) (SARS-CoV-2 (Wuhan-Hu-1)) (UniProt P0DTC2). Description: SPR.

As to “Urtica dioica agglutinin (UDA) (natural protein)”, the Kd was found to be 0.022 µM in assay [1] and 0.007 µM in assay [2].
